Earlier results as cited in patent publication US12678516B2, “Immunostimulatory toll-like receptor agonist-nanoparticle for cancer immunotherapy” (The Board of Trustees of the Leland Stanford Junior …, priority 2021, dated 2026).

Columns and labels:
[1] = not given; remark: listed apart in the source

Substance	toxicity with more frequent dosing (10 mg/kg monthly vs 15 mg/kg every 3 months, phase II)	sustained plasma levels in patients with the majority of responses (at one month)	doses at which objective responses were evident (single antibody infusion, doses 0.01 to 15 mg/kg)	grade Ill/IV enterocolitis, share of patients ([1]; 10 mg/kg)	hepatitis (irAE) ([1]; CTLA-4 blockade, patients)	hypophysitis (irAE) ([1]; CTLA-4 blockade, patients)	leucopenia (irAE) ([1]; CTLA-4 blockade, patients)	pancreatitis (irAE) ([1]; CTLA-4 blockade, patients)	rash/pruritus (irAE) ([1]; CTLA-4 blockade, patients)	uveitis (irAE) ([1]; CTLA-4 blockade, patients)
Tremelimumab: fully humanized CTLA4 antibody	doubled	> 30 µg/mL	≥ 3 mg/kg							
ipilimumab: fully humanized CTLA4 antibody				~ 15%	5-10%	5%	< 2%	< 2%	> 50%	< 2%
